Data: patent CN110903395A (SICHUAN KELUN BOTAI BIOMEDICAL CO LTD, dated 2020)

T1: Trop-2-mFc (human, UniProt P09758 27-274)
T1 construct: Made in-house by 四川科伦博泰; Coated at 1 μg/ml on the ELISA plate; also called 配体Trop-2-mFc
T1 sequence (looked up): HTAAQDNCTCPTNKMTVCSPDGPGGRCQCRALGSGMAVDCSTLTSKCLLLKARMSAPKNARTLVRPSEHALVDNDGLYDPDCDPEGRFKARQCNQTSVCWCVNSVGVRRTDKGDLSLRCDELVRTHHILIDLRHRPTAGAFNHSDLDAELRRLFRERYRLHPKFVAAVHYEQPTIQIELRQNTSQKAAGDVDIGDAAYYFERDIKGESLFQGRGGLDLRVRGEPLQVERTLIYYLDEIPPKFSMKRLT

B1: 疏水性改造TROP-2抗体M1 (antibody, human IgG1, kappa, V domains shown)
VH: QVQLQQSGSELKKPGASVKVSCKASGYTFTNYGMNWVKQAPGQGLKWMGWINTDSGEPTYTDDFKGRFAFSLDTSVSTAYLQISSLKADDTAVYFCARGGFGSSYWYFDVWGQGSLVTVSS
VL: DIQLTQSPSSLSASVGDRVSITCKASQDVSSAVAWYQQKPGKAPKLLIYSASYRYTGVPDRFSGSGSGTDFTLTISSLQPEDFAVYYCQQHYSTPLTFGAGTKVEIKR
notes: Humanized anti-Trop-2 antibody derived from Sacituzumab by hydrophilic CDR mutations; expressed in CHO-S cells, purified on protein A
B2: Sacituzumab抗体 (antibody, V domains shown)
VH: QVQLQQSGSELKKPGASVKVSCKASGYTFTNYGMNWVKQAPGQGLKWMGWINTYTGEPTYTDDFKGRFAFSLDTSVSTAYLQISSLKADDTAVYFCARGGFGSSYWYFDVWGQGSLVTVSS
VL: DIQLTQSPSSLSASVGDRVSITCKASQDVSIAVAWYQQKPGKAPKLLIYSASYRYTGVPDRFSGSGSGTDFTLTISSLQPEDFAVYYCQQHYITPLTFGAGTKVEIKR
B3: 疏水性改造TROP-2抗体M2 (antibody, human IgG1, kappa, V domains shown)
VH: QVQLQQSGSELKKPGASVKVSCKASGYTFTNYGMNWVKQAPGQGLKWMGWINTDSGEPTYTDDFKGRFAFSLDTSVSTAYLQISSLKADDTAVYFCARGGFGSSYWYFDVWGQGSLVTVSS
VL: DIQLTQSPSSLSASVGDRVSITCKASQDVSSAVAWYQQKPGKAPKLLIYSASYRYTGVPDRFSGSGSGTDFTLTISSLQPEDFAVYYCQQHYITPLTFGAGTKVEIKR
notes: as for B1
B4: 疏水性改造TROP-2抗体M3 (antibody, human IgG1, kappa, V domains shown)
VH: QVQLQQSGSELKKPGASVKVSCKASGYTFTNYGMNWVKQAPGQGLKWMGWINTDSGEPTYTDDFKGRFAFSLDTSVSTAYLQISSLKADDTAVYFCARGGFGSSYWYFDVWGQGSLVTVSS
VL: DIQLTQSPSSLSASVGDRVSITCKASQDVSIAVAWYQQKPGKAPKLLIYSASYRYTGVPDRFSGSGSGTDFTLTISSLQPEDFAVYYCQQHYSTPLTFGAGTKVEIKR
notes: as for B1

target: T1, Trop-2-mFc; assay: ELISA, Trop-2-mFc coated at 1 μg/ml, detection with HRP-anti human IgG(H+L)

Point of comparison: B1, EC50 9.91 nM. Against it:
- B2 — within 1.5-fold, 13.1 nM
- B3 — within 1.5-fold, 13.9 nM
- B4 — within 1.5-fold, 10.8 nM
